Here are results for 4 molecules from publication PMC11229316, “Insights into the molecular mechanism of ParABS system in chromosome partition by HpParA and HpParB” (Nucleic Acids Research, 2024).

The term Kd denotes the free concentration of one partner at which half of the binding sites on the other are occupied at equilibrium, for simple one-to-one binding.

One data set deals with T1, HpParA (HpSoj) (Helicobacter pylori, UniProt O25759 1-264).
T1 sequence: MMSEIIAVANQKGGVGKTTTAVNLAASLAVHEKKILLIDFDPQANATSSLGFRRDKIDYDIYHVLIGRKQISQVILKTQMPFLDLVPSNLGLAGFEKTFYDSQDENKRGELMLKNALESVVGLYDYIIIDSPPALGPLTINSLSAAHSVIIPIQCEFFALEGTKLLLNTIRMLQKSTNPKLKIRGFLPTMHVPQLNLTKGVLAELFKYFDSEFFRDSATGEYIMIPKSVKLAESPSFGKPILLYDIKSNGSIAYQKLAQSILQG
Put plainly: fluorescence polarization; 1 mM ATP, 5 mM Mg2+; FP: 20 mM Tris-HCl pH 8.0, 175 mM NaCl, 5 mM MgCl2, 10% glycerol, 1 mM ATP or CTP, 5 nM DNA, room temperature; EMSA: 20 mM Tris-HCl pH 8.0, 50 mM NaCl, 11 mM imidazole, 5 mM MgCl2, 10% glycerol, +/- 2 mM CTP, 37 C, gel at 4 C. Conditions: protein: recombinant; tags: His (Ni-NTA purified); label: 5' Cy5 in EMSA; FP label Cy3 or Cy5 not specified per DNA; blunt. A general note: Polarisation of emitted light reports the rotation of a fluorescent probe.

For the next data set, the target named is HpParAD41A (Helicobacter pylori, UniProt O25759 1-264, D41A). The data set is described as above. Conditions: protein: recombinant; tags: His (Ni-NTA purified); label: 5' Cy5 in EMSA; FP label Cy3 or Cy5 not specified per DNA; blunt. In general terms: A gel shift assay detects complexes by their altered migration in electrophoresis.
Data set [1] has as its target T2, HpParB (HpSpo0J) (Helicobacter pylori, UniProt O25758 1-290).
T2 sequence: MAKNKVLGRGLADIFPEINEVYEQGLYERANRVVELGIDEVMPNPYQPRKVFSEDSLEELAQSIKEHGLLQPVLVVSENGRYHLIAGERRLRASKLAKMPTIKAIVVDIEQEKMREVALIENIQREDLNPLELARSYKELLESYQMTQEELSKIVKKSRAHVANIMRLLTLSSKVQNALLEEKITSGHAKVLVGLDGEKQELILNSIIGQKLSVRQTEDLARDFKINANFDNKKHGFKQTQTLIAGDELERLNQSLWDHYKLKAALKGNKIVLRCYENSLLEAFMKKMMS
Put plainly: fluorescence polarization; 1 mM CTP, 5 mM Mg2+; FP: 20 mM Tris-HCl pH 8.0, 175 mM NaCl, 5 mM MgCl2, 10% glycerol, 1 mM ATP or CTP, 5 nM DNA, room temperature; EMSA: 20 mM Tris-HCl pH 8.0, 50 mM NaCl, 11 mM imidazole, 5 mM MgCl2, 10% glycerol, +/- 2 mM CTP, 37 C, gel at 4 C. The conditions noted are these: protein: recombinant, tags: His (Ni-NTA purified), chain copies: 2, blunt.

The target of data set [2] is T3, HpParA (HpSoj);HpParB (HpSpo0J) (Helicobacter pylori;Helicobacter pylori, UniProt O25759;O25758 1-264;1-290, |).
T3 sequence 1: T1 sequence
T3 sequence 2: T2 sequence
The data set can be described thus: EMSA; no CTP; NAC1 with Cy3-parS (N3) also in complex; FP: 20 mM Tris-HCl pH 8.0, 175 mM NaCl, 5 mM MgCl2, 10% glycerol, 1 mM ATP or CTP, 5 nM DNA, room temperature; EMSA: 20 mM Tris-HCl pH 8.0, 50 mM NaCl, 11 mM imidazole, 5 mM MgCl2, 10% glycerol, +/- 2 mM CTP, 37 C, gel at 4 C. Conditions: protein: recombinant;recombinant; tags: His (Ni-NTA purified); label: 5' Cy5 in EMSA; FP label Cy3 or Cy5 not specified per DNA; blunt.

Data set [3] deals with HpParAD41A;HpParB (HpSpo0J) (Helicobacter pylori;Helicobacter pylori, UniProt O25759;O25758 1-264;1-290, D41A|). Put plainly: EMSA; no CTP; NAC3 with Cy3-parS (N3) also in complex; FP: 20 mM Tris-HCl pH 8.0, 175 mM NaCl, 5 mM MgCl2, 10% glycerol, 1 mM ATP or CTP, 5 nM DNA, room temperature; EMSA: 20 mM Tris-HCl pH 8.0, 50 mM NaCl, 11 mM imidazole, 5 mM MgCl2, 10% glycerol, +/- 2 mM CTP, 37 C, gel at 4 C. Conditions: protein: recombinant;recombinant; tags: His (Ni-NTA purified); label: 5' Cy5 in EMSA; FP label Cy3 or Cy5 not specified per DNA; blunt.

A further data set has as its target T4, Ct-HpParB (Helicobacter pylori, UniProt O25758 1-240).
T4 sequence: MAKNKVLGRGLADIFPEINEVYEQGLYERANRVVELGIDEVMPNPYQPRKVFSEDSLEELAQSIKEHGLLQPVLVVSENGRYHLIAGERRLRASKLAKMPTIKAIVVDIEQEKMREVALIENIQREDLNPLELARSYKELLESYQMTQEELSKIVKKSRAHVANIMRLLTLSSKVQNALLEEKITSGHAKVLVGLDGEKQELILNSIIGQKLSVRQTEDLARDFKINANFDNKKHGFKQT
Put plainly: EMSA; no CTP; FP: 20 mM Tris-HCl pH 8.0, 175 mM NaCl, 5 mM MgCl2, 10% glycerol, 1 mM ATP or CTP, 5 nM DNA, room temperature; EMSA: 20 mM Tris-HCl pH 8.0, 50 mM NaCl, 11 mM imidazole, 5 mM MgCl2, 10% glycerol, +/- 2 mM CTP, 37 C, gel at 4 C. Conditions: protein: recombinant; chain copies: 2; label: none (GelRed stain); blunt.

Data set [4] addresses T5, HpParAD41A, ATP hydrolysis-deficient mutant of Helicobacter pylori ParA (Helicobacter pylori, UniProt O25759, D41A).
T5 construct: also called HpSojD41A; source: recombinant, grown in Luria-Bertani medium, induced with IPTG, purified as HpParA (Ni-NTA, SEC)
T5 sequence: T1 sequence with D41A
The data set can be described thus: MST; 5-FAM-Ahx-labeled peptide (200 nM) mixed 1:1 with 16 serial dilutions of unlabeled HpParA or HpParAD41A (300 μM); 20 mM Tris-HCl pH 8.0, 5% glycerol, 200 mM NaCl, 50 mM imidazole, 5 mM MgCl2, 0.05% Tween20; 25°C; the results speak of ParA-DNA complexes. The conditions noted are these: both partners purified.

The target in data set [5] is T2, HpParB (HpSpo0J). The data set can be described thus: fluorescence polarization; no CTP, 5 mM Mg2+; FP: 20 mM Tris-HCl pH 8.0, 175 mM NaCl, 5 mM MgCl2, 10% glycerol, 1 mM ATP or CTP, 5 nM DNA, room temperature; EMSA: 20 mM Tris-HCl pH 8.0, 50 mM NaCl, 11 mM imidazole, 5 mM MgCl2, 10% glycerol, +/- 2 mM CTP, 37 C, gel at 4 C. Conditions: protein: recombinant; tags: His (Ni-NTA purified); chain copies: 2; label: 5' Cy3 (FP dye assignment inferred from EMSA); blunt.

Changes are numbered by the printed parent chain. No end group written: not given here.

B1: Cy5/Cy3-labeled nsDNA 24-bp (dsDNA)
DNA 1: TCCTATGAATTGCTATGGCAAGCG
DNA 2: CGCTTGCCATAGCAATTCATAGGA
As for B1, the Kd with HpParA (HpSoj) is 117 ± 15.2 nM; with HpParAD41A, 149 ± 18.1 nM; in the data set with HpParB (HpSpo0J) [1] (label: 5' Cy5 in EMSA, FP label Cy3 or Cy5 not specified per DNA), 145 ± 28.8 nM. Besides, the binding result in data set [2] and in data set [3] was “binds” each time.

B2: nsDNA 24-bp (dsDNA)
DNA 1: TCCTATGAATTGCTATGGCAAGCG
DNA 2: CGCTTGCCATAGCAATTCATAGGA
Take B2: the binding result in the data set with Ct-HpParB is given as “no binding”.

B3: HpParBN10, N-terminal peptide of HpParB (residues 1-10) (peptide)
peptide: MAKNKVLGRG
modifications: not fully specified (N-terminus); also: labeled with 5-FAM-Ahx fluorophore, site not given here
notes: residues 1-10 of Helicobacter pylori Spo0J/ParB (HP1138); The methods describe only the 5-FAM-Ahx-labelled peptide; also called HpSpo0JN10; source: synthetic peptide, bought: MDBio, inc
For B3, in data set [4], the Kd worked out at 5300 ± 1100 nM.

B4: Cy3-parS 24-bp (dsDNA)
DNA 1: AGGGTGTTCCACGTGAAACAGGGA
DNA 2: TCCCTGTTTCACGTGGAACACCCT
For B4, the figures for the Kd with HpParB (HpSpo0J) [5] and with HpParB (HpSpo0J) [1] (label: 5' Cy3 (FP dye assignment inferred from EMSA)) were 63.4 ± 5.6 nM and 232 ± 42 nM, respectively.
